Measurements reported in patent US20230025280A1, “PH RESPONSIVE COMPOSITIONS, FORMULATIONS, AND METHODS OF IMAGING A TUMOR” (ONCONANO MEDICINE, INC, priority 2019, published 2023).
Values joined by “and” are separate entries in the source; they are usually repeats but may differ in a detail not shown here. Equal entries are not always repeated. Marks after values point to notes of the source that are not given here.

Test: Phase 1 (1a/1b) pharmacokinetics: plasma concentrations after single IV dose (validated direct fluorescence reader assay), noncompartmental analysis
Format: in vivo, human
From the text: Phase 1 is a single-Principal Investigator, non-randomized, open-label, single-arm, cross-sectional study to evaluate the safety, PK profile, and imaging feasibility of Compound 1 in patients with solid cancers who require surgical excision. The main purpose of this study was to investigate the safety, PK, and feasibility of Compound 1 as an intra-operative optical imaging agent to detect tumors and metastatic lymph nodes in solid cancers. The study was intended to investigate the optimal dose range of Compound 1 for an adequate TBR and CNR of fluorescence obtained intraoperatively at 24 (±8) hours post dosing and with ex vivo specimens using ICG compatible cameras and imaging devices.
Phase 1 enrolled 30 patients with solid cancers (HNSCC, breast cancer, esophageal cancer, or colorectal cancer) who have a biopsy-confirmed diagnosis of respective tumor types and are scheduled to undergo surgical resection of the tumor. The study design included a standard 3+3 design for the dose-escalation portion (Phase 1a; N=18 maximum) followed by a dose-expansion portion (Phase 1b; N=15). All patients received a single I.V. dose of Compound 1, followed by routine surgery approximately 24 hours after infusion of Compound 1.
Phase 1a was a dose-finding study performed in 5 cohorts of 3 patients each. The dose levels evaluated were […], and 1.2 mg/kg, in this sequence. Inter-cohort dose escalation took place after the last patient in the previous cohort completed the Day 10 safety assessment. Safety, PK, and imaging feasibility were evaluated in both the Phase 1a and 1b portions of the study. Patient safety is assessed during the study and for up to 10 days post-dose.
Study design: Single Compound 1 IV dose was administered as a 1-5 minute IV infusion to patients in five cohorts (0.1, 0.3, 0.5, 0.8, and 1.2 mg/kg) with three patients per cohort in Phase 1a and 15 patients at a dose of 1.2 mg/kg in Phase 1b. Patient demographic information including tumor types is presented in Table 4 and 5 for Phase 1a and Table 5 for Phase 1b. Intertek Pharmaceutical Services (San Diego, Calif.) determined Compound 1 plasma concentrations using a validated direct fluorescence reader assay. Pacific BioDevelopment (Davis, Calif.) performed the PK analysis.
Sample collection: Blood samples were collected prior to infusion and at 10 minutes and 0.5, 1, 3, 8, 24, 48, 72, and 240 hours after infusion.
Analysis: Plasma concentration versus time profiles were generated for each patient. Pharmacokinetic parameters were estimated using Phoenix WinNonlin (version 8.0). According to SOP, concentrations reported as BQL were set to 0 except for the 0.5 h sample for subject #ON1102, which was set to LLOQ/2 ([…] value used in parameter calculations) and the 24 and 48 h samples.
If the coefficient of determination for the terminal slope estimation was less than 0.8, T1/2 was not reported (NR). AUC extrapolated to infinity is not reported for any data set because in all cases the % extrapolated AUC was greater than 20% and thus the AUCinf estimate would not be reliable. The concentration at 10 minutes, the first time point measured (C10m), was also reported for each patient.
The area under the plasma concentration versus time curves from dosing to the last time point with a measurable concentration (AUClast) was estimated by the linear trapezoid method. The last three or more time points were used to estimate the elimination rate constant (λz) which was used to estimate the terminal-phase half-life (T1/2) and AUC from zero to infinity (AUCINF) from the following equations: […]

[1] = 1.2 mg/kg, HNSCC, individual subjects
[2] = Phase 1a, 0.3 mg/kg single IV, individual subject
[3] = Phase 1a, 0.3 mg/kg single IV, mean
[4] = Phase 1a, 0.3 mg/kg single IV, median
[5] = Phase 1a, 0.5 mg/kg single IV, individual subject

PEO90-140-b-P(DBA60-150-r-ICG0-3-r-AMA0-3) [Compound 1]
Cmax (1.2 mg/kg, HNSCC, Mean, N 7): 33600 ng/mL
Tmax (1.2 mg/kg, HNSCC, Mean, N 7): 1.14 h
T1/2 (1.2 mg/kg, HNSCC, Median, N 5): 42.6 h
AUC0-24 hr (1.2 mg/kg, HNSCC, Median, N 7): 565 µg·h/mL
AUCall (1.2 mg/kg, HNSCC, Median, N 7): 1160 µg·h/mL
AUClast (1.2 mg/kg, HNSCC, Median, N 7): 970 µg·h/mL
C10 m (1.2 mg/kg, HNSCC, Median, N 7): 30.3 µg/mL
Cmax (1.2 mg/kg, HNSCC, Median, N 7): 32400 ng/mL
Tmax (1.2 mg/kg, HNSCC, Median, N 7): 0.500 h
AUC0-24 hr [1]: 348 µg·h/mL and 563 µg·h/mL and 565 µg·h/mL and 520 µg·h/mL and 625 µg·h/mL and 730 µg·h/mL and 740 µg·h/mL
AUCall [1]: 348 µg·h/mL and 1160 µg·h/mL and 1100 µg·h/mL and 747 µg·h/mL and 2690 µg·h/mL and 2550 µg·h/mL and 2740 µg·h/mL
AUClast [1]: 184 µg·h/mL and 970 µg·h/mL and 957 µg·h/mL and 520 µg·h/mL and 1430 µg·h/mL and 1480 µg·h/mL and 1580 µg·h/mL
C10 m [1]: 28.0 µg/mL and 34.1 µg/mL and 28.5 µg/mL and 27.5 µg/mL and 30.3 µg/mL and 47.6 µg/mL and 31.3 µg/mL
Cmax [1]: 28000 ng/mL and 34100 ng/mL and 29900 ng/mL and 29200 ng/mL and 32400 ng/mL and 47600 ng/mL and 34300 ng/mL
T1/2 [1]: 32.5 h and 46.5 h and 42.6 h and 38.4 h and 46.8 h
Tmax [1]: 0.170 h and 1.00 h and 0.500 h and 3.00 h
AUC0-24h in relation to dose (Phase 1a and 1b, up to 1.2 mg/kg): appears to be dose proportional
Exposure in relation to dose (Phase 1a and Phase 1b combined): dose proportional
Measurability in subject plasma samples (Phase 1a, 0.1 mg/kg): not measurable
C10 m (Phase 1a, 0.1 mg/kg single IV, individual subject): 0.00 µg/mL
C10 m (Phase 1a, 0.1 mg/kg single IV, mean): 0.00 µg/mL
C10 m (Phase 1a, 0.1 mg/kg single IV, median): 0.00 µg/mL
Plasma Conc (Phase 1a, 0.100 mg/kg, 0.170 hr, individual subject): BQL (BQL (<10 μg/mL), set = 0 for PK analysis)
Plasma Conc (Phase 1a, 0.100 mg/kg, 0.170 hr, mean): 0.00 µg/mL
Plasma Conc (Phase 1a, 0.100 mg/kg, 0.500 hr, individual subject): BQL (BQL (<10 μg/mL), set = 0 for PK analysis)
Plasma Conc (Phase 1a, 0.100 mg/kg, 0.500 hr, mean): 0.00 µg/mL
Plasma Conc (Phase 1a, 0.100 mg/kg, 1.00 hr, individual subject): BQL (BQL (<10 μg/mL), set = 0 for PK analysis)
Plasma Conc (Phase 1a, 0.100 mg/kg, 1.00 hr, mean): 0.00 µg/mL
Plasma Conc (Phase 1a, 0.100 mg/kg, 3.00 hr, individual subject): BQL (BQL (<10 μg/mL), set = 0 for PK analysis)
Plasma Conc (Phase 1a, 0.100 mg/kg, 3.00 hr, mean): 0.00 µg/mL
Plasma Conc (Phase 1a, 0.100 mg/kg, 8.00 hr, individual subject): BQL (BQL (<10 μg/mL), set = 0 for PK analysis)
Plasma Conc (Phase 1a, 0.100 mg/kg, 8.00 hr, mean): 0.00 µg/mL
Plasma Conc (Phase 1a, 0.100 mg/kg, 24.0 hr, individual subject): BQL (BQL (<10 μg/mL), set = 0 for PK analysis)
Plasma Conc (Phase 1a, 0.100 mg/kg, 24.0 hr, mean): 0.00 µg/mL
Plasma Conc (Phase 1a, 0.100 mg/kg, 48.0 hr, individual subject): BQL (BQL (<10 μg/mL), set = 0 for PK analysis)
Plasma Conc (Phase 1a, 0.100 mg/kg, 48.0 hr, mean): 0.00 µg/mL
Plasma Conc (Phase 1a, 0.100 mg/kg, 72.0 hr, individual subject): BQL (BQL (<10 μg/mL), set = 0 for PK analysis)
Plasma Conc (Phase 1a, 0.100 mg/kg, 72.0 hr, mean): 0.00 µg/mL
Plasma Conc (Phase 1a, 0.100 mg/kg, 240 hr, individual subject): BQL (BQL (<10 μg/mL), set = 0 for PK analysis)
Plasma Conc (Phase 1a, 0.100 mg/kg, 240 hr, mean): 0.00 µg/mL
Mean AUC0-24h (Phase 1a, 0.3 mg/kg): 197 µg·h/mL
Mean C10 (Phase 1a, 0.3 mg/kg): 12 µg/mL
AUC0-24 hr [2]: 292 µg·h/mL and 4.68 µg·h/mL and 296 µg·h/mL
AUCall [2]: 437 hr*μg/mL and 4.68 hr*μg/mL and 2040^1 hr*μg/mL
AUClast [2]: 292 µg·h/mL and 3.43 µg·h/mL and 902 µg·h/mL
C10 m [2]: 10.7 µg/mL and 10.4 µg/mL and 14.8 µg/mL
Cmax [2]: 12500 ng/mL and 10400 ng/mL and 16500 ng/mL
Tmax [2]: 8.00 h and 0.170 h and 3.00 h
AUC0-24 hr [3]: 197 µg·h/mL
AUCall [3]: 826 µg·h/mL
AUClast [3]: 399 µg·h/mL
C10 m [3]: 12.0 µg/mL
Cmax [3]: 13100 ng/mL
Tmax [3]: 3.72 h
AUC0-24 hr [4]: 292 µg·h/mL
AUCall [4]: 437 µg·h/mL
AUClast [4]: 292 µg·h/mL
C10 m [4]: 10.7 µg/mL
Cmax [4]: 12500 ng/mL
Tmax [4]: 3.00 h
Plasma Conc (Phase 1a, 0.300 mg/kg, 0.170 hr, individual subject): 10.7 µg/mL and 10.4 µg/mL and 14.8 µg/mL
Plasma Conc (Phase 1a, 0.300 mg/kg, 0.170 hr, mean): 12.0 µg/mL
Plasma Conc (Phase 1a, 0.300 mg/kg, 0.500 hr, individual subject): 5.00^b μg/mL and 15.1 μg/mL
Plasma Conc (Phase 1a, 0.300 mg/kg, 0.500 hr, mean): 10.1 µg/mL
Plasma Conc (Phase 1a, 0.300 mg/kg, 1.00 hr, individual subject): 11.4 μg/mL and BQL (BQL (<10 μg/mL), set = 0 for PK analysis) and 12.9 μg/mL
Plasma Conc (Phase 1a, 0.300 mg/kg, 1.00 hr, mean): 8.10 µg/mL
Plasma Conc (Phase 1a, 0.300 mg/kg, 3.00 hr, individual subject): 12.0 μg/mL and BQL (BQL (<10 μg/mL), set = 0 for PK analysis) and 16.5 μg/mL
Plasma Conc (Phase 1a, 0.300 mg/kg, 3.00 hr, mean): 9.50 µg/mL
Plasma Conc (Phase 1a, 0.300 mg/kg, 8.00 hr, individual subject): 12.5 μg/mL and BQL (BQL (<10 μg/mL), set = 0 for PK analysis) and 11.2 μg/mL
Plasma Conc (Phase 1a, 0.300 mg/kg, 8.00 hr, mean): 7.90 µg/mL
Plasma Conc (Phase 1a, 0.300 mg/kg, 24.0 hr, individual subject): 12.1 μg/mL and BQL (BQL (<10 μg/mL), set = 0 for PK analysis) (2×)
Plasma Conc (Phase 1a, 0.300 mg/kg, 24.0 hr, mean): 6.05 µg/mL
Plasma Conc (Phase 1a, 0.300 mg/kg, 48.0 hr, individual subject): BQL (BQL (<10 μg/mL), set = 0 for PK analysis)
Plasma Conc (Phase 1a, 0.300 mg/kg, 48.0 hr, mean): 0.00 µg/mL
Plasma Conc (Phase 1a, 0.300 mg/kg, 72.0 hr, individual subject): BQL (BQL (<10 μg/mL), set = 0 for PK analysis) (2×) and 13.5 μg/mL
Plasma Conc (Phase 1a, 0.300 mg/kg, 72.0 hr, mean): 4.50 µg/mL
Plasma Conc (Phase 1a, 0.300 mg/kg, 240 hr, individual subject): BQL (BQL (<10 μg/mL), set = 0 for PK analysis)
Plasma Conc (Phase 1a, 0.300 mg/kg, 240 hr, mean): 0.00 µg/mL
Mean AUC0-24h (Phase 1a, 0.5 mg/kg): 289 µg·h/mL
Mean C10 (Phase 1a, 0.5 mg/kg): 17.3 µg/mL
AUC0-24 hr [5]: 314 µg·h/mL and 340 µg·h/mL and 213 µg·h/mL
AUCall [5]: 314 µg·h/mL and 1980 µg·h/mL and 213 µg·h/mL
AUClast [5]: 160 µg·h/mL and 969 µg·h/mL and 101 µg·h/mL
C10 m [5]: 22.0 µg/mL and 16.2 µg/mL and 13.6 µg/mL
